Consider six sequences from the supplement of paper PMC5998384.

Data set [1] concerns HeLa Kyoto. In words: solubility in G1/S (NP-40 vs SDS abundance) (log2 ratio); higher = more soluble. As to conditions: cell cycle stage: G1/S.
Data set [2] concerns HeLa Kyoto. The data set can be described thus: solubility change mitosis vs G1/S (difference of NP-40 vs SDS log2 ratios) (log2 ratio difference); higher = more soluble in mitosis.
Data set [3] has as its system HeLa Kyoto. The data set can be described thus: melting temperature (median over replicates), in situ; higher = more thermally stable.
Data set [4] has as its system HeLa Kyoto. In words: thermal stability score vs G1/S (z-score of summed log2 fold changes over temperatures); higher = more thermally stable than in G1/S.
The mark [5] stands for this setting: cell cycle stage: early G1 (4.5 h after nocodazole release).
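Throughout, for melting temperature (median over replicates), in situ: HeLa Kyoto cells synchronized by double thymidine or nocodazole block, proteins quantified by TMT10plex mass spectrometry, three independent biological replicates.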
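Throughout, for solubility change mitosis vs G1/S (difference of NP-40 vs SDS log2 ratios): synchronized HeLa Kyoto cells (double thymidine block for G1/S, nocodazole release for mitosis), protein amounts in NP-40 versus SDS lysates quantified by mass spectrometry, three biological replicates.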
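Throughout, for solubility in G1/S (NP-40 vs SDS abundance): HeLa Kyoto cells arrested at G1/S by double thymidine block, proteins quantified by TMT10plex mass spectrometry in mild NP-40 versus SDS extracts, three biological replicates.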
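Throughout, for thermal stability score vs G1/S (z-score of summed log2 fold changes over temperatures): synchronized HeLa Kyoto cells, proteins quantified by TMT10plex mass spectrometry, three biological replicates, mitosis taken 0.5 h after nocodazole release, G1/S directly after double thymidine block.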

In the case of “MVKEQFRETDVAKKISHICFGMKSPEEMRQQAHIQVVSKNLYSQDNQHAPLLYGVLDHRMGTSEKDRPCETCGKNLADCLGHYGYIDLELPCFHVGYFRAVIGILQMICKTCCHIMLSQEEKKQFLDYLKRPGLTYLQKRGLKKKISDKCRKKNICHHCGAFNGTVKKCGLLKIIHEKYKTNKKVVDPIVSNFLQSFETAIEHNKEVEPLLGRAQENLNPLVVLNLFKRIPAEDVPLLLMNPEAGKPSDLILTRLLVPPLCIRPSVVSDLKSGTNEDDLTMKLTEIIFLNDVIKKHRISGAKTQMIMEDWDFLQLQCALYINSELSGIPLNMAPKKWTRGFVQRLKGKQGRFRGNLSGKRVDFSGRTVISPDPNLRIDEVAVPVHVAKILTFPEKVNKANINFLRKLVQNGPEVHPGANFIQQRHTQMKRFLKYGNREKMAQELKYGDIVERHLIDGDVVLFNRQPSLHKLSIMAHLARVKPHRTFRFNECVCTPYNADFDGDEMNLHLPQTEEAKAEALVLMGTKANLVTPRNGEPLIAAIQDFLTGAYLLTLKDTFFDRAKACQIIASILVGKDEKIKVRLPPPTILKPVTLWTGKQIFSVILRPSDDNPVRANLRTKGKQYCGKGEDLCANDSYVTIQNSELMSGSMDKGTLGSGSKNNIFYILLRDWGQNEAADAMSRLARLAPVYLSNRGFSIGIGDVTPGQGLLKAKYELLNAGYKKCDEYIEALNTGKLQQQPGCTAEETLEALILKELSVIRDHAGSACLRELDKSNSPLTMALCGSKGSFINISQMIACVGQQAISGSRVPDGFENRSLPHFEKHSKLPAAKGFVANSFYSGLTPTEFFFHTMAGREGLVDTAVKTAETGYMQRRLVKSLEDLCSQYDLTVRSSTGDIIQFIYGGDGLDPAAMEGKDEPLEFKRVLDNIKAVFPCPSEPALSKNELILTTESIMKKSEFLCCQDSFLQEIKKFIKGVSEKIKKTRDKYGINDNGTTEPRVLYQLDRITPTQVEKFLETCRDKYMRAQMEPGSAVGALCAQSIGEPGTQMTLKTFHFAGVASMNITLGVPRIKEIINASKAISTPIITAQLDKDDDADYARLVKGRIEKTLLGEISEYIEEVFLPDDCFILVKLSLERIRLLRLEVNAETVRYSICTSKLRVKPGDVAVHGEAVVCVTPRENSKSSMYYVLQFLKEDLPKVVVQGIPEVSRAVIHIDEQSGKEKYKLLVEGDNLRAVMATHGVKGTRTTSNNTYEVEKTLGIEAARTTIINEIQYTMVNHGMSIDRRHVMLLSDLMTYKGEVLGITRFGLAKMKESVLMLASFEKTADHLFDAAYFGQKDSVCGVSECIIMGIPMNIGTGLFKLLHKADRDPNPPKRPLIFDTNEFHIPLVT [POLR3A]”, in data set [1], the “solubility in G1/S (log2)” value was -0.268. Besides, the “solubility change mitosis (log2)” value in data set [2] was -0.101. The melting temperature in data set [3] (cell cycle stage: G1/S) amounted to 49.1 °C; in data set [3] (cell cycle stage: mitosis), 49.9 °C. In addition, the figures for the thermal stability score in data set [4] (setting [5]) and in data set [4] (cell cycle stage: mitosis) were 0.905 and 2.38, respectively.
As for “MFLVNSFLKGGGGGGGGGGGLGGGLGNVLGGLISGAGGGGGGGGGGGGGGGGGGGGTAMRILGGVISAISEAAAQYNPEPPPPRTHYSNIEANESEEVRQFRRLFAQLAGDDMEVSATELMNILNKVVTRHPDLKTDGFGIDTCRSMVAVMDSDTTGKLGFEEFKYLWNNIKRWQAIYKQFDTDRSGTICSSELPGAFEAAGFHLNEHLYNMIIRRYSDESGNMDFDNFISCLVRLDAMFRAFKSLDKDGTGQIQVNIQEWLQLTMYS [CAPNS1]”, in data set [1], the “solubility in G1/S (log2)” value is 0.395. Besides, the “solubility change mitosis (log2)” value in data set [2] is -0.0652. In addition, the melting temperature in data set [3] (cell cycle stage: G1/S) amounted to 55.4 °C; in data set [3] (cell cycle stage: mitosis), 55 °C. Further, the results for the thermal stability score in data set [4] (setting [5]) and in data set [4] (cell cycle stage: mitosis) were 1.02 and 1.65, respectively.
Turning to “MFLTRSEYDRGVNTFSPEGRLFQVEYAIEAIKLGSTAIGIQTSEGVCLAVEKRITSPLMEPSSIEKIVEIDAHIGCAMSGLIADAKTLIDKARVETQNHWFTYNETMTVESVTQAVSNLALQFGEEDADPGAMSRPFGVALLFGGVDEKGPQLFHMDPSGTFVQCDARAIGSASEGAQSSLQEVYHKSMTLKEAIKSSLIILKQVMEEKLNATNIELATVQPGQNFHMFTKEELEEVIKDI [PSMA5]”, in data set [1], the “solubility in G1/S (log2)” value is 0.313. Further, the “solubility change mitosis (log2)” value in data set [2] was -0.0172. The values for the melting temperature in data set [3] (cell cycle stage: G1/S) and in data set [3] (cell cycle stage: mitosis) were 55.4 °C and 53.9 °C, respectively. For the same sequence, the values for the thermal stability score in data set [4] (setting [5]) and in data set [4] (cell cycle stage: mitosis) were 1.94 and 2.76, respectively.
On to “MPILKQLVSSSVHSKRRSRADLTAEMISAPLGDFRHTMHVGRAGDAFGDTSFLNSKAGEPDGESLDEQPSSSSSKRSLLSRKFRGSKRSQSVTRGEREQRDMLGSLRDSALFVKNAMSLPQLNEKEAAEKGTSKLPKSLSSSPVKKANDGEGGDEEAGTEEAVPRRNGAAGPHSPDPLLDEQAFGDLTDLPVVPKATYGLKHAESIMSFHIDLGPSMLGDVLSIMDKEEWDPEEGEGGYHGDEGAAGTITQAPPYAVAAPPLARQEGKAGPDLPSLPSHALEDEGWAAAAPSPGSARSMGSHTTRDSSSLSSCTSGILEERSPAFRGPDRARAAVSRQPDKEFSFMDEEEEDEIRV [CDC42EP4]”, for which, in data set [1], the “solubility in G1/S (log2)” value is 0.487. In data set [2], the “solubility change mitosis (log2)” value is -0.0259. In addition, the results for the melting temperature in data set [3] (cell cycle stage: G1/S) and in data set [3] (cell cycle stage: mitosis) were 53.6 °C and 51.8 °C, respectively. For the same sequence, the thermal stability score in data set [4] (setting [5]) is -3.73; in data set [4] (cell cycle stage: mitosis), -2.19.
As for “MHKAGLLGLCARAWNSVRMASSGMTRRDPLANKVALVTASTDGIGFAIARRLAQDGAHVVVSSRKQQNVDQAVATLQGEGLSVTGTVCHVGKAEDRERLVATAVKLHGGIDILVSNAAVNPFFGSIMDVTEEVWDKTLDINVKAPALMTKAVVPEMEKRGGGSVVIVSSIAAFSPSPGFSPYNVSKTALLGLTKTLAIELAPRNIRVNCLAPGLIKTSFSRMLWMDKEKEESMKETLRIRRLGEPEDCAGIVSFLCSEDASYITGETVVVGGGTPSRL [DHRS4]”, the “solubility in G1/S (log2)” value in data set [1] was -0.159. For the same sequence, the “solubility change mitosis (log2)” value in data set [2] was 0.0427. Besides, the melting temperature in data set [3] (cell cycle stage: G1/S) was found to be 53.4 °C; in data set [3] (cell cycle stage: mitosis), 53.5 °C. In addition, the values for the thermal stability score in data set [4] (setting [5]) and in data set [4] (cell cycle stage: mitosis) were -0.643 and -0.663, respectively.
Turning to “MAENPSLENHRIKSFKNKGRDVETMRRHRNEVTVELRKNKRDEHLLKKRNVPQEESLEDSDVDADFKAQNVTLEAILQNATSDNPVVQLSAVQAARKLLSSDRNPPIDDLIKSGILPILVKCLERDDNPSLQFEAAWALTNIASGTSAQTQAVVQSNAVPLFLRLLRSPHQNVCEQAVWALGNIIGDGPQCRDYVISLGVVKPLLSFISPSIPITFLRNVTWVIVNLCRNKDPPPPMETVQEILPALCVLIYHTDINILVDTVWALSYLTDGGNEQIQMVIDSGVVPFLVPLLSHQEVKVQTAALRAVGNIVTGTDEQTQVVLNCDVLSHFPNLLSHPKEKINKEAVWFLSNITAGNQQQVQAVIDAGLIPMIIHQLAKGDFGTQKEAAWAISNLTISGRKDQVEYLVQQNVIPPFCNLLSVKDSQVVQVVLDGLKNILIMAGDEASTIAEIIEECGGLEKIEVLQQHENEDIYKLAFEIIDQYFSGDDIDEDPCLIPEATQGGTYNFDPTANLQTKEFNF [KPNA3]”, the “solubility in G1/S (log2)” value in data set [1] came to 0.128. Moreover, the “solubility change mitosis (log2)” value in data set [2] was -0.0814. For the same sequence, the results for the melting temperature in data set [3] (cell cycle stage: G1/S) and in data set [3] (cell cycle stage: mitosis) were 49 °C and 50.5 °C, respectively. Besides, the thermal stability score is 1.67 in data set [4] (setting [5]) and 4.62 in data set [4] (cell cycle stage: mitosis).
